# Article PMC2661029
# Where two headings read alike, the source gives them in different places.
# Experiments:
# [1] = target: FADD death domain, His6-tagged (UniProt Q13158); test: pull-down
# Fas death domain [2] = target: Fas death domain (UniProt P25445)
# Fas death domain [3] = target: Fas death domain (UniProt P25445); test: crystal structure
# UniProt Q13158, sequence (Q13158 93-191): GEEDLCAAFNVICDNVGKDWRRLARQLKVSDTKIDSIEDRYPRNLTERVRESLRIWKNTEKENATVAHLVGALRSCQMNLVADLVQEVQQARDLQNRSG
substance,measurement,setting,value
Fas death domain (from UniProt P25445 230-314) (domain or fragment),concentration at which the complex dissociates,[1],50 µM
same,stoichiometry N,Fas death domain [2],4
same,stoichiometry N,Fas death domain [3],4
